Laboratory results: the supplement of paper PMC10567573

B1: CLCN6 (parent)
chain: TGLVGLFVDFFVRLFTQLKFGVVQ

Variants of: B1
Experiment: protein stability index of a GFP-peptide fusion (GPS, HEK-293T) (PSI 1-6); higher = more stable
Settings: c terminus: a fixed tail appended
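Also: lentivirally expressed fusions sorted by FACS into six bins by GFP to DsRed ratio, PSI derived from sequencing read proportions per bin multiplied by bin number.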

Row | Variant | protein stability index
1 | TGLVGLFVDFFVRLFPQLKFGVVQ | 1.8
2 | TGLVGLFVDFFVRLFYQLKFGVVQ | 1.98
3 | TGLVGLFVDFFVRLFCQLKFGVVQ | 1.99
4 | TGLVGLFVDFFVRLFQQLKFGVVQ | 3
5 | TGLVGLFVDFFVRLFMQLKFGVVQ | 2.35
6 | TGLVGLFVDFFVRLFEQLKFGVVQ | 1.75
7 | TGLVGLFVDFFVRLFLQLKFGVVQ | 2.02
8 | TGLVGNFVDFFVRLFTQLKFGVVQ | 2.76
9 | TGLVGAFVDFFVRLFTQLKFGVVQ | 2.77
10 | TGLVGPFVDFFVRLFTQLKFGVVQ | 2.65
11 | TGLVGCFVDFFVRLFTQLKFGVVQ | 2.69
12 | TGLVGDFVDFFVRLFTQLKFGVVQ | 2.33
13 | TGLVGGFVDFFVRLFTQLKFGVVQ | 3.36
14 | TGLVGLFVDFFVRLFTQLKGGVVQ | 2.89
15 | TGLVGLFVDFFVRLFTQLKVGVVQ | 2.84
16 | TGLVGLFVDFFVRLFTQLKTGVVQ | 3.48
17 | TGLVGLFVDFFVRLFTQLKDGVVQ | 4.13
18 | TGLVGLFVDFFVRLFTQLKHGVVQ | 2.58
19 | TGLVGLFVDFFVRLFTQLKYGVVQ | 2.55
20 | TGLVGLFVDFFVRLFTQLKNGVVQ | 3.99
21 | TGLVGLFVDFFVRLFTQLKCGVVQ | 3.79
22 | TGLVGLFVDFFVRLITQLKFGVVQ | 3.25
23 | TGLVGLFVDFFVRLGTQLKFGVVQ | 2.95
24 | TGLVGLFVDFFVRLATQLKFGVVQ | 1.96

Row | Variant | protein stability index
25 | TGLVGLFVDFFVRLTTQLKFGVVQ | 2.51
26 | TGLVGLFVDFFVRLSTQLKFGVVQ | 2.76
27 | TGLVGLFVDFFVRLDTQLKFGVVQ | 2.88
28 | TGLVGLFVDFFVRLYTQLKFGVVQ | 2.73
29 | TGLVGLFVDFFVRLWTQLKFGVVQ | 3.46
30 | TGLVGLFVDFFVRLKTQLKFGVVQ | 2.12
31 | TGLVGLFVDFFVRLLTQLKFGVVQ | 1.96
32 | TGLVGLFGDFFVRLFTQLKFGVVQ | 2.9
33 | TGLVGLFIDFFVRLFTQLKFGVVQ | 1.74
34 | TGLVGLFKDFFVRLFTQLKFGVVQ | 2.04
35 | TGLVGLFFDFFVRLFTQLKFGVVQ | 2.04
36 | TGLVGLFSDFFVRLFTQLKFGVVQ | 1.76
37 | TGLVGLFCDFFVRLFTQLKFGVVQ | 2.25
38 | TGLVGLFYDFFVRLFTQLKFGVVQ | 2.79
39 | TGLVGLFTDFFVRLFTQLKFGVVQ | 1.9
40 | TGLVGLFLDFFVRLFTQLKFGVVQ | 3.04
41 | TGLVGLFVDFFVRLFTQLKFGVVV | 1.71
42 | TGLVGLFVDFFVRLFTQLKFGVVT | 1.6
43 | TGLVGLFVDFFVRLFTQLKFGVVD | 2.46
44 | TGLVGLFVDFFVRLFTQLKFGVVY | 1.74
45 | TGLVGLFVDFFVRLFTQLKFGVVG | 2.32
46 | TGLVGLFVDFFVRLFTQLKFGVVF | 1.18
47 | TGLVGLFVDFFVRLFTQLKFGVVH | 2.07
48 | TGLVGLFVDFFVRLFTQLKFGVVK | 3.16

Row | Variant | protein stability index
49 | AGLVGLFVDFFVRLFTQLKFGVVQ | 1.84
50 | DGLVGLFVDFFVRLFTQLKFGVVQ | 2.39
51 | HGLVGLFVDFFVRLFTQLKFGVVQ | 2.01
52 | RGLVGLFVDFFVRLFTQLKFGVVQ | 3.29
53 | KGLVGLFVDFFVRLFTQLKFGVVQ | 2.83
54 | PGLVGLFVDFFVRLFTQLKFGVVQ | 2.59
55 | IGLVGLFVDFFVRLFTQLKFGVVQ | 1.56
56 | NGLVGLFVDFFVRLFTQLKFGVVQ | 1.8
57 | WGLVGLFVDFFVRLFTQLKFGVVQ | 1.73
58 | LGLVGLFVDFFVRLFTQLKFGVVQ | 1.68
59 | QGLVGLFVDFFVRLFTQLKFGVVQ | 2.17
60 | TGLVRLFVDFFVRLFTQLKFGVVQ | 2.69
61 | TGLVDLFVDFFVRLFTQLKFGVVQ | 2.47
62 | TGLVHLFVDFFVRLFTQLKFGVVQ | 2.16
63 | TGLVALFVDFFVRLFTQLKFGVVQ | 2.19
64 | TGLVNLFVDFFVRLFTQLKFGVVQ | 2
65 | TGLVYLFVDFFVRLFTQLKFGVVQ | 2.08
66 | TGLVGLFVDFFVRLFTQLKFGYVQ | 2.36
67 | TGLVGLFVDFFVRLFTQLKFGHVQ | 1.92
68 | TGLVGLFVDFFVRLFTQLKFGCVQ | 1.87
69 | TGLVGLFVDFFVRLFTQLKFGEVQ | 3.23
70 | TGLVGLFVDFFVRLFTQLKFGAVQ | 1.77
71 | TGHVGLFVDFFVRLFTQLKFGVVQ | 2.25
72 | TGYVGLFVDFFVRLFTQLKFGVVQ | 2.63

Row | Variant | protein stability index
73 | TGNVGLFVDFFVRLFTQLKFGVVQ | 2.11
74 | TGQVGLFVDFFVRLFTQLKFGVVQ | 1.49
75 | TGTVGLFVDFFVRLFTQLKFGVVQ | 1.65
76 | TGLVGLFVDFFVRLFTQLKFYVVQ | 3.39
77 | TGLVGLFVDFFVRLFTQLKFVVVQ | 3
78 | TGLVGLFVDFFVRLFTQLKFAVVQ | 3.26
79 | TGLVGLFVDFFVRLFTQLKFFVVQ | 3.79
80 | TGLVGLFVDFFVRLFTQLKFCVVQ | 1.86
81 | TGLVGLFVDFFVRLFTQLKFTVVQ | 2.4
82 | TGLVGLFVDFFVRLFTQLKFKVVQ | 3.7
83 | TGLVGLFVDFFHRLFTQLKFGVVQ | 2.09
84 | TGLVGLFVDFFDRLFTQLKFGVVQ | 1.73
85 | TGLVGLFVDFFSRLFTQLKFGVVQ | 2.45
86 | TGLVGLFVDFFMRLFTQLKFGVVQ | 2.47
87 | TGLVGLFVDFFNRLFTQLKFGVVQ | 1.56
88 | TGLVGLFVDFFPRLFTQLKFGVVQ | 1.78
89 | TGLVGLFVDFFLRLFTQLKFGVVQ | 1.95
90 | TGLVGLFVDLFVRLFTQLKFGVVQ | 1.77
91 | TGLVGLFVDRFVRLFTQLKFGVVQ | 2.82
92 | TGLVGLFVDPFVRLFTQLKFGVVQ | 2.17
93 | TGLVGLFVDEFVRLFTQLKFGVVQ | 2.19
94 | TGLVGLFVDQFVRLFTQLKFGVVQ | 1.85
95 | TGLVGLFVDFFVRLFTQLWFGVVQ | 3.05
96 | TGLVGLFVDFFVRLFTQLNFGVVQ | 2.21

Row | Variant | protein stability index
97 | TGLVGLFVDFFVRLFTQLFFGVVQ | 1.89
98 | TGLVGLFVDFFVRLFTQLRFGVVQ | 2.17
99 | TGLVGLFVDFFVRLFTQLVFGVVQ | 2.66
100 | TGLVGLFVDFFVRLFTQLLFGVVQ | 2.56
101 | TGLVGLFVDFFVRLFTQLGFGVVQ | 1.98
102 | TGLVGLFVPFFVRLFTQLKFGVVQ | 1.92
103 | TGLVGLFVMFFVRLFTQLKFGVVQ | 1.89
104 | TGLVGLFVQFFVRLFTQLKFGVVQ | 2.24
105 | TGLVGLFVGFFVRLFTQLKFGVVQ | 2.47
106 | TGLVGLFVEFFVRLFTQLKFGVVQ | 2.12
107 | TGLVGLFVNFFVRLFTQLKFGVVQ | 2.87
108 | TGLVGLFVHFFVRLFTQLKFGVVQ | 2.61
109 | TGLVGLFVKFFVRLFTQLKFGVVQ | 3.08
110 | TGLVGLFVFFFVRLFTQLKFGVVQ | 2.17
111 | TPLVGLFVDFFVRLFTQLKFGVVQ | 1.67
112 | TFLVGLFVDFFVRLFTQLKFGVVQ | 3.79
113 | TSLVGLFVDFFVRLFTQLKFGVVQ | 1.96
114 | TNLVGLFVDFFVRLFTQLKFGVVQ | 1.84
115 | TLLVGLFVDFFVRLFTQLKFGVVQ | 3.27
116 | THLVGLFVDFFVRLFTQLKFGVVQ | 2.34
117 | TELVGLFVDFFVRLFTQLKFGVVQ | 1.67
118 | TMLVGLFVDFFVRLFTQLKFGVVQ | 2.66
119 | TKLVGLFVDFFVRLFTQLKFGVVQ | 2.53
120 | TGLVGLFVDFFVRDFTQLKFGVVQ | 4.06

Row | Variant | protein stability index
121 | TGLVGLFVDFFVRRFTQLKFGVVQ | 1.86
122 | TGLVGLFVDFFVRKFTQLKFGVVQ | 2.34
123 | TGLVGLFVDFFVRPFTQLKFGVVQ | 1.68
124 | TGLVGLFVDFFVRGFTQLKFGVVQ | 1.68
125 | TGLVGLFVDFFVRTFTQLKFGVVQ | 1.99
126 | TGLVGLFVDFFVRLFTQYKFGVVQ | 3.06
127 | TGLVGLFVDFFVRLFTQHKFGVVQ | 3.39
128 | TGLVGLFVDFFVRLFTQKKFGVVQ | 2.02
129 | TGLVGLFVDFFVRLFTQCKFGVVQ | 2.36
130 | TGLVGLFVDFFVRLFTQTKFGVVQ | 2.75
131 | TGLVGLFVDFFVRLFTQDKFGVVQ | 2.25
132 | TGLVGLFVDFFVRLFTQRKFGVVQ | 2.74
133 | TGLVGLFVDFFVRLFTQAKFGVVQ | 1.97
134 | TGLVGLFVDFFVRLFTQNKFGVVQ | 3.66
135 | TGLVGLFVDFFVRLFTQIKFGVVQ | 2.7
136 | TGLVGLFVDFFVILFTQLKFGVVQ | 2.59
137 | TGLVGLFVDFFVMLFTQLKFGVVQ | 3.23
138 | TGLVGLFVDFFVFLFTQLKFGVVQ | 2.96
139 | TGLVGLFVDFFVYLFTQLKFGVVQ | 2.62
140 | TGLVGLFVDFFVSLFTQLKFGVVQ | 1.84
141 | TGLVGLFVDFFVDLFTQLKFGVVQ | 1.83
142 | TGLVGLFVDFFVELFTQLKFGVVQ | 2.34
143 | TGLVGLFVDFFVVLFTQLKFGVVQ | 1.76
144 | TGLVGLFVDFFVPLFTQLKFGVVQ | 3.13

Row | Variant | protein stability index
145 | TGLVGLQVDFFVRLFTQLKFGVVQ | 2.03
146 | TGLVGLSVDFFVRLFTQLKFGVVQ | 1.82
147 | TGLVGLIVDFFVRLFTQLKFGVVQ | 2.57
148 | TGLVGLGVDFFVRLFTQLKFGVVQ | 1.73
149 | TGLVGLLVDFFVRLFTQLKFGVVQ | 2.77
150 | TGLVGLPVDFFVRLFTQLKFGVVQ | 2.28
151 | TGLVGLYVDFFVRLFTQLKFGVVQ | 2.54
152 | TGLVGLMVDFFVRLFTQLKFGVVQ | 2.56
153 | TGLVGLRVDFFVRLFTQLKFGVVQ | 1.69
154 | TGLVGLFVDFFVRLFTSLKFGVVQ | 2.81
155 | TGLVGLFVDFFVRLFTTLKFGVVQ | 2.12
156 | TGLVGLFVDFFVRLFTMLKFGVVQ | 2.09
157 | TGLVGLFVDFFVRLFTWLKFGVVQ | 3.5
158 | TGLVGLFVDFFVRLFTVLKFGVVQ | 2.14
159 | TGLVGLFVDFFVRLFTRLKFGVVQ | 3.5
160 | TGLVGLFVDFFVRLFTDLKFGVVQ | 1.81
161 | TGLVGLFVDFFVRLFTCLKFGVVQ | 2.01
162 | TGLVGLFVDFFVRLFTGLKFGVVQ | 1.77
163 | TGLNGLFVDFFVRLFTQLKFGVVQ | 2.39
164 | TGLCGLFVDFFVRLFTQLKFGVVQ | 2.36
165 | TGLLGLFVDFFVRLFTQLKFGVVQ | 2.33
166 | TGLIGLFVDFFVRLFTQLKFGVVQ | 2.56
167 | TGLGGLFVDFFVRLFTQLKFGVVQ | 1.66
168 | TGLWGLFVDFFVRLFTQLKFGVVQ | 3.63

Row | Variant | protein stability index
169 | TGLFGLFVDFFVRLFTQLKFGVVQ | 2.93
170 | TGLMGLFVDFFVRLFTQLKFGVVQ | 2.49
171 | TGLVGLFVDFEVRLFTQLKFGVVQ | 2.4
172 | TGLVGLFVDFLVRLFTQLKFGVVQ | 2.32
173 | TGLVGLFVDFPVRLFTQLKFGVVQ | 2.07
174 | TGLVGLFVDFHVRLFTQLKFGVVQ | 2.21
175 | TGLVGLFVDFRVRLFTQLKFGVVQ | 2.75
176 | TGLVGLFVDFMVRLFTQLKFGVVQ | 2.16
177 | TGLVGLFVDFIVRLFTQLKFGVVQ | 2.29
178 | TGLVGLFVDFTVRLFTQLKFGVVQ | 2.01
179 | TGLVGLFVDFKVRLFTQLKFGVVQ | 3.06
180 | TGLVGLFVDFGVRLFTQLKFGVVQ | 1.76
181 | TGLVGLFVDFAVRLFTQLKFGVVQ | 2.84
182 | TGLVGLFVDFNVRLFTQLKFGVVQ | 2.88
183 | TGLVGLFVDFFVRLFTQLKFGVQQ | 2.77
184 | TGLVGLFVDFFVRLFTQLKFGVFQ | 2.98
185 | TGLVGLFVDFFVRLFTQLKFGVEQ | 1.94
186 | TGLVGLFVDFFVRLFTQLKFGVGQ | 2.18
187 | TGLVGLFVDFFVRLFTQLKFGVIQ | 2.23
188 | TGLVGLFVDFFVRLFTQLKFGVSQ | 2.73
